Laboratory results as given in patent US11639503B2, “Anti-chymase aptamer and use for same” (RIBOMIC INC., priority 2017, dated 2023).
Oligonucleotides are written 5' to 3', each unit as a sugar letter and its base; * is a phosphorothioate linkage, no mark a phosphodiester; rarer units and linkages stand in square brackets, end groups in braces. Plain capitals give the bases only. r = 2'-OH (RNA); f = 2'-fluoro

T1: chymase (recombinant, manufactured by SIGMA) (Homo sapiens, UniProt P23946)
T1 construct: purchased SIGMA
T1 sequence (P23946 22-247): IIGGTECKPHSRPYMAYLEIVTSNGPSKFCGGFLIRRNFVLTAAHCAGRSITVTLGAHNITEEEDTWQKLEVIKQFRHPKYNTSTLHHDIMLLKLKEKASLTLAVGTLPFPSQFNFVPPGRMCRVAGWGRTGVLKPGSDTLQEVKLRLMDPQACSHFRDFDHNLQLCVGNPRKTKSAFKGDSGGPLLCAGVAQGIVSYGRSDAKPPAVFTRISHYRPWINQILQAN

T2: chymase purified from human skin mast cell (native, Calbiochem) (Homo sapiens, UniProt P23946)
T2 construct: Here, the native is chymase purified from human skin mast cell; purchased Calbiochem; host or cells: human skin mast cell (tissue-derived)
T2 sequence (P23946 22-247): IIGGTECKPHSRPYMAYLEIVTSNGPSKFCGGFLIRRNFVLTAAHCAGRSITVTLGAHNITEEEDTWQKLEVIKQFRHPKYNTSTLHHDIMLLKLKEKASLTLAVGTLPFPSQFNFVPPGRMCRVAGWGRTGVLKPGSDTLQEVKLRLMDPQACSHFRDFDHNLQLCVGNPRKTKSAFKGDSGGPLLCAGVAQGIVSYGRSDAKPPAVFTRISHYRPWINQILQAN


Experiments:
[1] = molecular target: T1, chymase (recombinant, manufactured by SIGMA); test: chymase enzyme activity inhibition, synthetic substrate Suc-Ala-Ala-Pro-Phe-MCA; type: biochemical
Description: A first method employs a synthetic substrate. A useful chymase substrate is Suc-Ala-Ala-Pro-Phe-MCA (4-methylcoumaryl-7-amide group) (manufactured by Peptide Institute, Inc.), which contains the 4-amino acid peptide “Ala-Ala-Pro-Phe” (SEQ ID NO: 41), a standard substrate for chymotrypsin-like proteases.
The assay is performed using a 96-well plate (F16 Black Maxisorp Fluoronunc, manufactured by Nunc), with a reaction mixture volume of 100 μL, in a buffer solution (solution C; see Example 2 below). First, each nucleic acid is prepared in solution C to obtain 50 μL solutions. After 10 μL of the 1 mM substrate prepared in solution C is added, the plate is set to the microplate reader SpectraMax190 (manufactured by Molecular Devices Corporation), and incubated at 37° C. for 5 minutes. Separately, 0.05 μg of chymase (recombinant, manufactured by SIGMA) is diluted in solution C, and 40 μL of this dilution is incubated at 37° C. for 5 minutes. The chymase solution is added to the mixture of the nucleic acid and substrate to initiate an enzyme reaction. The plate containing the reaction mixture is set to the microplate reader SpectraMax190 (manufactured by Molecular Devices Corporation), and examined for time-dependent changes in the fluorescence intensity at 37° C. for 5 minutes (excitation wavelength 380 nm, detection wavelength 460 nm). A linear approximation of the increase in the fluorescence of the AMC (7-amino-4-methylcoumarine) released from the substrate by chymase activity is generated, and its slope is taken as the initial reaction velocity. For control, samples are treated and analyzed in the same manner in two cases: use of a nucleic acid pool containing a random sequence of 30 or 40 nucleotides (negative control), and use of chymostatin, a known chymotrypsin-like serine protease inhibitor (positive control). Taking the initial reaction velocity without the nucleic acid and inhibitor as a 100% enzyme activity, the inhibitory rate for each test substance is calculated, and the inhibitor concentration required to cause a 50% inhibition of the enzyme activity (IC50) is determined.
Whether the nucleic acids shown by SEQ ID NO: 1-8 inhibit the enzyme activity of chymase was determined as described below. The chymase substrate used was Suc-Ala-Ala-Pro-Phe-MCA (manufactured by Peptide Institute, Inc.), which contains the 4-amino-acid peptide Ala-Ala-Pro-Phe, a standard substrate for chymotrypsin-like proteases. Here, Suc is a protecting succinyl group, and MCA is a 4-methylcoumaryl-7-amide group; upon cleavage of the C-terminal side of phenylalanine, AMC (7-amino-4-methylcoumarine) is released. By detecting the fluorescence of this AMC, the enzyme activity of chymase can be determined. The assay was performed using a 96-well plate (F16 Black Maxisorp Fluoronunc, manufactured by Nunc), with a reaction mixture volume of 100 μL, in solution C as a buffer solution. Here, the solution C is a mixed solution of 145 mM sodium chloride, 5.4 mM potassium chloride, 1.8 mM calcium chloride, 0.8 mM magnesium chloride, 20 mM Tris (pH 7.6), and 0.05% Tween20. First, nucleic acid was serially diluted in solution C to obtain 50 μL solutions. After 10 μL of the 1 mM substrate prepared in solution C was added thereto, the plate was set to the microplate reader SpectraMax190 (manufactured by Molecular Devices Corporation), and incubated at 37° C. for 5 minutes. […] The chymase solution was added to the mixture of the nucleic acid and substrate to initiate an enzyme reaction. The final chymase concentration in the reaction mixture was 16.7 nM, the final substrate concentration being 100 μM. The plate containing the reaction mixture was set to the microplate reader SpectraMax190 (manufactured by Molecular Devices Corporation), and examined for time-dependent changes in the fluorescence intensity at 37° C. for 5 minutes (or 30 minutes) (excitation wavelength 380 nm, detection wavelength 460 nm). […]

[2] = molecular target: T2, chymase purified from human skin mast cell (native, Calbiochem); test: chymase enzyme activity inhibition, native substrate angiotensin I (His-Leu fluorescence); type: biochemical; conditions: mean of 2 or 3 measurements
Description: A second method of evaluation employs a native substrate. A useful native substrate for chymase is angiotensin I. Here, His-Leu, a peptide fragment released upon degradation of angiotensin I, is fluorescently derivatized, and the fluorescence intensity therefrom is quantified.
In the assay, an enzyme reaction is carried out in 50 μL of solution C. First, 0.3-0.75 ng of chymase (recombinant, manufactured by SIGMA; or native, manufactured by Calbiochem) is diluted in solution C to obtain 5 μL chymase solution. Each nucleic acid is prepared in solution C to obtain 25 μL solutions. 5 μL of each chymase dilution and 25 μL of each nucleic acid solution are mixed, and then the mixture is incubated at 37° C. for 5 minutes. Separately, 20 μL of 125 μM angiotensin I (manufactured by Peptide Institute, Inc.) is prepared in solution C and incubated at 37° C. for 5 minutes. The angiotensin I solution is added to the mixture of chymase and nucleic acid, and the enzyme reaction is initiated. After the reaction was allowed to proceed at 37° C. for 90 minutes, 25 μL of ice-cooled 30% trichloroacetic acid solution is added to terminate the reaction. The entire mixture is centrifuged at 4° C., 14000 rpm for 10 minutes, and 30 μL of the resulting supernatant is used for the subsequent reaction for fluorescent derivatization.
After 30 μL of the supernatant is added to a 96-well plate (Black, manufactured by Costar), 15 μL of 2% o-phthalaldehyde (manufactured by SIGMA) solution in methanol and 170 μL of 0.3M NaOH solution are mixed in each well, and the plate is allowed to stand at room temperature for 10 minutes. Subsequently, 25 μL of 3M HCl solution is added to terminate the reaction. The plate is set to the microplate reader SpectraMax190 (manufactured by Molecular Devices Corporation), and the fluorescence intensity is determined at an excitation wavelength of 355 nm and a fluorescence wavelength of 460 nm.
For control, samples are treated and analyzed in the same manner in two cases: use of SEQ ID NO: 58 (negative control) and use of chymostatin, a known chymotrypsin-like serine protease inhibitor (positive control). In both cases, fluorescence intensity obtained at 0 minute reaction time serves as a blank determination. Taking the fluorescence intensity detected with the addition of an equal volume of solution C, in place of each nucleic acid, in the chymase enzyme reaction as 100%, the inhibitory rate for each test substance is calculated, and the inhibitor concentration required to cause a 50% inhibition of the enzyme activity (IC50) is determined.
Whether the nucleic acids shown by SEQ ID NO: 9 and 10 inhibit the enzyme activity of chymase was determined by the following method. Angiotensin I is converted by chymase to angiotensin II, during which a peptide fragment His-Leu is released. Since the peptide His-Leu is fluorescently derivatized by o-phthalaldehyde, its fluorescence intensity can be quantitatively measured.
The total volume of solution for an enzyme reaction in the assay was set to 50 μL, and the reaction was performed in solution C buffer. At first, native (manufactured by Calbiochem) was diluted with solution C to give 5 μL thereof. Here, the native is chymase purified from human skin mast cell. The nucleic acid was serially diluted with solution C at a concentration of 0.0027-2 μM to give 25 μL thereof. The chymase solution (5 μL) and the nucleic acid solution (25 μL) were mixed, and the mixture was incubated at 37° C. for 5 min. On the other hand, […] angiotensin I (manufactured by PEPTIDE INSTITUTE, INC.) was prepared in solution C to give 20 μL thereof, which was incubated at 37° C. for 5 min. The angiotensin I solution was added to a mixture of chymase and nucleic acid to start an enzyme reaction. The final chymase concentration of the reaction solution was 0.5 nM, and the final substrate concentration was 50 μM. […]

[3] = Table 5, MCA substrate, amount of chymase 0.005 μg instead of 0.05 μg, one measurement
[4] = Table 1, substrate Suc-Ala-Ala-Pro-Phe-MCA 100 μM, chymase 0.05 μg (16.7 nM), 37° C., mean of 2 or 3 measurements

Row | Molecule | IC50 [1, 4] [nM] | other results
1 | 22 (GGCAGAUGAUCGGACAUAACAGUUAGAUAGAGUUAAAAACUGGGGUGUCAA; 2'-fluoro at CU, RNA at AG, backbone not given here) [compound 22] |  | IC50 [1, 3]: 5 nM
2 | 25 (GGCAGAUGAUCGGACAUAACAAGAUAGAGUUAAAUGGGGUGUCAA; 2'-fluoro at CU, RNA at AG, backbone not given here) [compound 25] |  | IC50 [1, 3]: 5.8 nM
3 | CC(C)C[C@H](NC(=O)[C@@H](NC(=O)N[C@@H](Cc1ccccc1)C(=O)O)[C@@H]1CCN=C(N)N1)C(=O)N[C@H](C=O)Cc1ccccc1 [chymostatin, reference compound] | 100 to 200 | IC50 ([2]; Table 2, substrate angiotensin I 50 μM, chymase 0.5 nM, 37° C. 90 min): 350 to 500 nM
4 | 21 (GGCAGAUGAUCGGACAUAACAGGUUAGAUAGAGUUAAAAACCUGGGGUGUCAA; 2'-fluoro at CU, RNA at AG, backbone not given here) [compound 21] |  | IC50 [1, 3]: 5.7 nM
5 | 1 (nucleic acid, aptamer) rGrGrGrArGfCrArGrGrArGrArGrArGrGfUfCrArGrAfUrGrArGfCrAfUrGfCfUfUfUfUfUrGrGfUrArAfCfCrGrAfUrArAfUrGrGrGrGrGfCfCfUrAfUrGfCrGfUrGfCfUrArGfUrGfUrGrA | 41 | 
6 | 2 (nucleic acid, aptamer) rGrGrGrArGfCrArGrGrArGrArGrArGrGfUfCrArGrAfUrGrAfUfCrGrGrAfCrAfUrArAfCrAfUfUrGfUfUrGrGrGrGfUrGfUfCrArArGrGfCfCfUrAfUrGfCrGfUrGfCfUrArGfUrGfUrGrA | 31 | IC50 ([2]; Table 3, angiotensin I as substrate, >1 = no inhibitory activity up to 1 μM): 10 nM; IC50 ([2]; Table 4, angiotensin I as substrate): 10 nM; IC50 ([2]; Table 6, angiotensin I as substrate): 10 nM
7 | 5 (nucleic acid, aptamer) rGrGrGrArGfCrArGrGrArGrArGrArGrGfUfCrArGrAfUrGrAfUrGrAfCfCrGrAfUfUrAfUrArGrGfUrArAfCfCrAfCfUfUrArGrGrGrGrGfCfCfUrAfUrGfCrGfUrGfCfUrArGfUrGfUrGrA | 7 | 
8 | 8 (nucleic acid, aptamer) rGrGrGrArGfCrArGrGrArGrArGrArGrGfUfCrArGrAfUrGrAfUfUrGrAfCrGrAfCfUrAfUrArGrGfUrArAfCfCfUfUfUrAfCrGrGrGrGrGfCfCfUrAfUrGfCrGfUrGfCfUrArGfUrGfUrGrA | 35 | 
9 | 6 (nucleic acid, aptamer) rGrGrGrArGfCrArGrGrArGrArGrArGrGfUfCrArGrAfUrGfUfCrAfUrGrAfCfUfUrAfUrArGrGfUrArAfCfCrGrAfUrArAfUrGrGrGrGrGfCfCfUrAfUrGfCrGfUrGfCfUrArGfUrGfUrGrA | 5.5 | 
10 | 4 (nucleic acid, aptamer) rGrGrGrArGfCrArGrGrArGrArGrArGrGfUfCrArGrAfUrGfUrArAfCfUfCfUrAfUfUrGrArGrGrGrGfCrAfUfCrArGfCrAfCrArGfUrArGfCfCfUrAfUrGfCrGfUrGfCfUrArGfUrGfUrGrA | 10.8 | 
11 | 3 (nucleic acid, aptamer) rGrGrGrArGfCrArGrGrArGrArGrArGrGfUfCrArGrAfUrGrAfUrArAfCfCrArGfUfUrGrGrGrGrGrGfUfCrArAfUfUrAfCrAfUrGrGrGrAfCfCfUrAfUrGfCrGfUrGfCfUrArGfUrGfUrGrA | 26 | 
12 | 7 (nucleic acid, aptamer) rGrGrGrArGfCrArGrGrArGrArGrArGrGfUfCrArGrAfUrGfUfUfUrGrGfUrArGfUrArAfCfUrGrGrArAfUrArGrGrGrGfCfUrAfCrArGrGfCfCfUrAfUrGfCrGfUrGfCfUrArGfUrGfUrGrA | 52 | 
